How the values were obtained:
HT29 (colon) = system: HT29 (colon)
Description: Female and male athymic NCr-nu mice between 5 and 6 weeks of age weighing approximately 20 g were purchased from Harlan, Inc. (Madison, Wis., USA). Human cancer cells HT29 (colon), PC3 (prostate), and MDA-MB-231 (breast) were propagated in cell culture and implanted subcutaneously at one million cells per flank of female (for MDA-MB-231 and HT29) or male (for PC3 prostate tumor) nude mice and allowed to grow to approximately 60-100 mm^3 before treatment was initiated. Treatments included 5-fluorouracil (5FU), docetaxel (Taxotere®), albumin-bound paclitaxel (nab-paclitaxel), nab-paclitaxel plus suntinib malate (Sutent®), or nab-paclitaxel plus bevacizumab (Avastin®) with or without exogenously administered SPARC). Control animals for each xenograft were administered PBS. The longest (length) and shortest (width) tumor diameters (millimeter) and tumor depth were measured twice weekly. The tumor volume was calculated with the formula: tumor volume (mm3)=width×length×depth. Tumor growth inhibition (TGI) was defined as the percentage of tumor volume reduction compared with the control group at the time of euthanasia for the control animals. Tumor doubling time was defined as the time required for the tumor volume to double […]. Animal weights were measured twice weekly. Statistical analysis was performed using the Prism program (GraphPad, San Diego, Calif., USA). Analysis of variance (ANOVA) statistic was used to compare tumor growth curves.

[1] = system: human umbilical cord vein endothelial cells (HUVEC); test: HUVEC bead sprouting angiogenesis assay; type: cell-based; details: 5 days
Experimental: First, the effect of SPARC on sprouting was studied in an in vitro angiogenesis model system that was prepared using human umbilical cord vein endothelial cells (HUVEC) as described by Nakatsu et al (Methods Enzymol. 443:65-82 (2008)). Low passage HUVEC grown in M199 media supplemented with 10% FBS (Gibco, Carlsbad, Calif.) were switched to EGM-2 media (Clonetics, Walkersville, Md.) 2 days before beading. Cytodex 3 microcarrier beads (Amersham Pharmacia Biotech, Piscataway, N.J.) were hydrated and washed with PBS (pH 7.4). 1×10^6 HUVEC cells were incubated with 2500 hydrated and sterilized beads in EGM-2 medium for 4 hours at 37° C. for coating. The coated beads were next embedded in 2 mg/mL fibrinogen in PBS with 0.15 units/mL aprotinin at a concentration of 500 beads/mL. Next, 0.625 units/mL thrombin was added and 0.5 mL of the mixture was added to each well of a 24 well plate. The solution was allowed to clot at RT for 5 minutes and 37° C. for another 15 min. After clotting 20,000 lung fibroblast cells in EGM-2 media were seeded in each well. Either 1, 10 or 100 μg/mL BioI SPARC protein in PBS, or PBS without protein was added to the growth medium and cultures were maintained for 5 days until sprouting was evaluated by light microscopy. The number of tubes formed/bead and the morphology of sprouting HUVEC cells in the cultures were determined using image pro software (Media Cybernetics, Bethesda, Md.).

[2] = system: recombinant human SPARC protein; test: Tube Formation Assay (AngioKit) with SPARC and SPARC binding antibodies; type: cell-based; details: 10 μg/mL recombinant human SPARC in the culture media
Experimental: This assay was performed using the TCS Cellworks human AngioKit model kit (TCS-ZHA-1000, TCS Cell Works, Buckingham, UK) as described in Example 10 above. The media contained 10 μg/mL recombinant human SPARC protein. The media also contained 300 μg/mL of one of the above prepared mouse SPARC binding monoclonal antibodies (Imm12, Imm14, mHTI), or a control (mouse IgG).
To examine the effect of SPARC on tubule formation, and interference with that function by SPARC binding monoclonal antibodies, the number of tubules formed and their length was evaluated by light microscopy.

MDA-MB-231 (breast) = test: MDA-MB-231 breast cancer xenograft; type: in vivo, mice; details: MDA-MB-231 xenograft, nab-paclitaxel 10 mg/kg, P<0.001 (FIG. 24C)
Experimental: (§1) Control animals for each xenograft were administered PBS. […] Animal weights were measured twice weekly.
(§2) These findings were further confirmed in the MDA-MB-231 breast cancer xenografts (FIG. 24C) and PC3 prostate cancer xenografts (FIG. 24D). […] In these experiments, nab-paclitaxel was dosed sub-optimally at 10 mg/kg, daily for five cycles.

[3] = system: endothelial cell tubule formation; test: TCS Cellworks AngioKit tubule formation assay; type: cell-based, human; details: 11 days
Description: Next, the effect of SPARC on tubule formation was examined using the TCS cellworks human Angiokit model kit (TCS-ZHA-1000, TCS Cell Works Buckingham, UK). In this assay, the endothelial cells initially form small islands within the culture matrix. They subsequently begin to proliferate and then enter a migratory phase during which they move through the matrix to form threadlike tubule structures. These gradually join up (by 9-11 days) to form a network of anastomosing tubules which closely resembles a capillary bed.
24-well pre-seeded endothelial cell tissue culture plates containing early stage co-cultures (day 2-3) were used according to manufacturer's recommendations (TCS Cell Works, Buckingham, UK). The cultures were incubated at 37° C./5% CO2 for 11 days. Media on the cultures was changed with added test and control compounds on days 4, 7 and 9 after initial treatment, followed by fixation with 70% ethanol on day 11. Fixed cultures were subsequently stained as follows: Primary rabbit anti-CD31 antibody (Thermo Scientific) was diluted to a final concentration of 2 μg/mL in PBS/1% BSA blocking buffer. Then, 0.5 mL of diluted anti-CD31 antibody was added to each well and incubated for 1 h at 37° C. […]
The number and lengths of tubules formed were then evaluated by light microscopy. […] Total vessel number, total tubule area and the number of branch points can be similarly determined.

MDA-MB-435-Luc+ = MDA-MB-435-Luc+ orthotopic metastatic model; type: in vivo, mice
Experimental: MDA-MB-435-Luc+ were implanted orthotopic in mammary fat pad (MFP) at 4×10^6 cells in 50% Matrigel and allowed to reach average tumor volume of 180 mm^3 before treatment. Treatments were: 2 cycles of 10 mg/kg nab-paclitaxel, 4 mg/kg SPARC, and bevacizumab biweekly. At appropriate time interval, the following organs were harvested for quantitation of metastasis: Proximal lymph nodes, contralateral lymph nodes, lungs, liver and brain. Statistical tests used included t-test and Mann Whitney-U.
Mice were monitored 2-3 times a week and tumor growth was recorded. Mice were sorted when tumor volumes reached 180 mm^3, and the first cycle of treatment was administered. Seven rest days were given between the first and second cycle. Bevacizumab and SPARC were continually administered during the rest period. Weight was measured periodically throughout the study to assess toxic effects from the therapy.
The following dosing schedules were followed: Control (Group 1); 10 mg/kg nab-paclitaxel daily for 3 to 5 cycles (Group 2); 4 mg/kg soluble SPARC (Bio 1) injected i.v. biweekly (Group 3); and 10 mg/kg nab-paclitaxel daily for two to five cycles and 4 mg/kg SPARC-biweekly (Group 4).
Total metastatic burden was also calculated. It is presented as measured luciferase activity in tissue extracts expressed in RLU normalized per mg protein. All contralateral lymph nodes were negative for all groups. There were a few incidences of metastasis occurred in the proximal lymph node, liver and brain. […] Liver metastasis occurred somewhat frequently in the both control and SPARC groups (present in 3 mice in each group). There was also one control mouse that had brain metastasis.

PC3 (prostate) = test: PC3 prostate cancer xenograft; type: in vivo, mice; details: nab-paclitaxel 10 mg/kg, P<0.001 (FIG. 24D)
Experimental: as §1, §2

B1: SPARC: recombinant wild-type human SPARC (BIO1), exogenously administered (protein)
chain: APQQEALPDETEVVEETVAEVTEVSVGANPVQVEVGEFDDGAEETEEEVVAENPCQNHHCKHGKVCELDENNTPMCVCQDPTSCPAPIGEFEKVCSNDNKTFDSSCHFFATKCTLEGTKKGHKLHLDYIGPCKYIPPCLDSELTEFPLRMRDWLKNVLVTLYERDEDNNLLTEKQKLRVKKIHENEKRLEAGDHPVELLARDFEKNYNMYIFPVHWQFGQLDQHPIDGYLSHTELAPLRAPLIPMEHCTTRFFETCDLDNDKYIALDEWAGCFGIKQKDIDKDLVI
impact of SPARC treatment on the nab-paclitaxel/bevacizumab combination (HT29 (colon); HT29 xenograft (FIG. 24B)): minimal negative impact
Tumor growth inhibition (TGI) (HT29 (colon); HT29 xenograft, versus control group at euthanasia of control animals): 35.4%
seeded HUVEC/beads that had developed sprouts ([1]; 1 μg/mL SPARC): less than 50%
average sprouts/bead ([1]; 10 μg/mL SPARC): 0.9 sprouts/bead
average sprouts/bead ([1]; 100 μg/mL SPARC): 1.9 sprouts/bead
tubule formation [2]: formation of numerous long tubules
effect of SPARC administration on antitumor effects of nab-paclitaxel and suntinib (MDA-MB-231 (breast)): significantly inhibited
angiogenic activity (tubule formation) ([3]; high concentration of SPARC (100 μg/mL)): significantly inhibited angiogenesis
angiogenic activity (tubule formation) ([3]; low concentrations of SPARC (1 and 10 μg/mL)): stimulate angiogenesis
tumor growth rate (MDA-MB-435-Luc+; MDA-MB-435-Luc+ mammary fat pad tumors): 23.16±4.38 mm3/day
average tumor volume (MDA-MB-435-Luc+; in 63 days): 1765 mm3
lung metastatic burden, average RLU/mg total protein (MDA-MB-435-Luc+; luciferase activity in lung tissue extracts): 31630±10820 RLU/mg total protein
mice positive for lung metastasis (MDA-MB-435-Luc+; mouse, in vivo): 9 of 9
mice with liver metastasis (MDA-MB-435-Luc+; mouse, in vivo): 3 mice
Tumor Volume on day 56 (MDA-MB-435-Luc+; mouse, in vivo, in mm³ (unit assumed)): 1524
% Inhibition (MDA-MB-435-Luc+; tumor volume on day 56): 35%
effect of SPARC administration on antitumor effects of nab-paclitaxel and bevacizumab (PC3 (prostate)): significantly inhibited
